T1: CD30 (human, UniProt P28908 19-595)
T1 sequence (looked up): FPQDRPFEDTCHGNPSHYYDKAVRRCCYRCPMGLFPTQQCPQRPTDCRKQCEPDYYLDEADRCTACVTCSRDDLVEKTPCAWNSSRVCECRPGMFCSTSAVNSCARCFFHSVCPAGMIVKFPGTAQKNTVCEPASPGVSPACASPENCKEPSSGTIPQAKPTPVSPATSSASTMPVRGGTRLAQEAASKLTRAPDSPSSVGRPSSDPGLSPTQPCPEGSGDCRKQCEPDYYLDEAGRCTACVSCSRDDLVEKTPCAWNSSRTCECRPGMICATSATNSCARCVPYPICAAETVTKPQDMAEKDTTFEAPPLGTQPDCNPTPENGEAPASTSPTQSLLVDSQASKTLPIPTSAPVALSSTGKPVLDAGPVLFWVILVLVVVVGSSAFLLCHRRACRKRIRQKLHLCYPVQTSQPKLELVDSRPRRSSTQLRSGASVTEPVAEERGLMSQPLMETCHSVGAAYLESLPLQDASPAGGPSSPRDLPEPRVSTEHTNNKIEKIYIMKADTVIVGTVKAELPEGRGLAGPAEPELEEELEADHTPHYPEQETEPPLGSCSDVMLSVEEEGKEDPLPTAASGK


Key:
[1] = target: CD64 (Fc gamma receptor I) (human, UniProt P12314 16-374); assay: cell-based or functional assay
[2] = target: T1, CD30; assay: cell-based or functional assay

Chain of CD64 (Fc gamma receptor I) (P12314 16-374, form in doubt): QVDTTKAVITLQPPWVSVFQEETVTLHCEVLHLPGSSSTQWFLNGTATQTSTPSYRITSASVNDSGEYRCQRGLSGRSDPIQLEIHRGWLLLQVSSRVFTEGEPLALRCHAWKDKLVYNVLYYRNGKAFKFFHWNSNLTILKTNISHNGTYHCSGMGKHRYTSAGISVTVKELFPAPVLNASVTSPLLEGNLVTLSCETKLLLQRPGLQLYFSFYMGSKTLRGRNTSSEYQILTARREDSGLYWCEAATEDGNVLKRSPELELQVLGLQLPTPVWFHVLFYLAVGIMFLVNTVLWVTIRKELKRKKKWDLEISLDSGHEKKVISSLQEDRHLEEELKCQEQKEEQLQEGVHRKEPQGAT

Binder | IC50, XTT viability assay on Interferon γ stimulated HL60 cells [1] [nM] | IC50, XTT viability assay on L540 cells [2] [nM]
Gm-H22(scFv) (other) IIGGREVIPHSRPYMASLQRNGSHLCGGVLVHPKWVLTAAHCLAQRMAQLRLVLGLHTLDSPGLTFHIKAAIQHPRYKPVPALENDLALLQLDGKVKPSRTIRPLALPSKRQVVAAGTRCSMAGWGLTHQGGRLSRVLRELDLQVLDTRMCNNSRFWNGSLSPSMVCLAADSKDQAPCKGDSGGPLVCGKGRVLAGVLSFSSRVCTDIFKPPVATAVAPYVSWIRKVTGRSAAEHEGDAAQPAMAQVQLVESGGGVVQPGRSLRLSCSSSGFIFSDNYMYWVRQAPGKGLEWVATISDGGSYTYYPDSVKGRFTISRDNSKNTLFLQMDSLRPEDTGVYFCARGYYRYEGAMDYWGQGTPVTVSSGGGGSGGGGSGGGGSDIQLTQSPSSLSASVGDRVTITCKSSQSVLYSSNQKNYLAWYQQKPGKAPKLLIYWASTRESGVPSRFSGSGSGTDFTFTISSLQPEDIATYYCHQYLSSWTFGQGTKLEIK | 1.2 | –
Gm-Ki4(scFv) (other) IIGGREVIPHSRPYMASLQRNGSHLCGGVLVHPKWVLTAAHCLAQRMAQLRLVLGLHTLDSPGLTFHIKAAIQHPRYKPVPALENDLALLQLDGKVKPSRTIRPLALPSKRQVVAAGTRCSMAGWGLTHQGGRLSRVLRELDLQVLDTRMCNNSRFWNGSLSPSMVCLAADSKDQAPCKGDSGGPLVCGKGRVLAGVLSFSSRVCTDIFKPPVATAVAPYVSWIRKVTGRSAAEHEGDAAQPAMAQVKLQESGTELAKPGAAVKMSCKASGYTFTDYWMHWVKQRPGQGLEWIGYINPNTAYTDYNQKFKDKATLTADKSSSTAYMQLRSLTSEDSAVYYCAKKTTQTTWGFPFWGQGTTVTVSSGGGGSGGGGSGGGGSDIVLTQSPKSMAMSVGERVTLSCKASENVDSFVSWYQQKPGQSPKLLIYGASNRYTGVPDRFAGSGSGRDFTLTISSVQAEDLADYHCGQNYRYPLTFGAGTKLEIKR | – | 272

Source: patent US20150291693A1 (FRAUNHOFER GESELLSCHAFT ZUR FORDERUNG DER ANGEWANDTEN …, published 2015)
